Experimental data: patent US10428140B2, “Anti-EphA4 antibody” (EISAI R&D MANAGEMENT CO., LTD., priority 2015, dated 2019)

Key:
[1] = target: T1, mouse EphA4 (binding to mouse Ephrin A1) (Mus musculus, UniProt Q03137); assay: Mouse EphA4-mouse ligand binding inhibition ELISA (Ephrin A1-Fc); details: mouse EphA4-mouse ligand binding inhibition
T1 construct: made in house; host or cells: HEK293EBNA cells
Procedure: Antibody A obtained in Example 1 was evaluated for its inhibitory activity against the binding between mouse EphA4 and its mouse ligand according to the following steps. Each well of a 96-well plate (Nunc) was coated with an anti-alkaline phosphatase antibody (Thermo Fisher Scientific). After incubation overnight at 4° C., each well was blocked with 1% BlockAce (DS Pharma Biomedical) at room temperature for 1 hour. After washing with 0.05% Tween 20/PBS (Thermo Fisher Scientific) three times, the mouse EphA4 extracellular region-SEAP-His protein obtained by the method of Example 1 was added (final concentration: 10 nM) to each well and incubated at room temperature for 1 hour. After washing three times, ligands and serially diluted antibody A (0, 0.001, 0.003, 0.01, 0.03, 0.1, 0.3, 1,3, 10, 30, 100, 300, and 1000 nM) or a known EphA4 inhibitor KYL peptide (KYLPYWPVLSSL, 0, 0.003, 0.01, 0.03, 0.1, 0.3, 1, 3, 10, 30, and 100 μM, its synthesis was outsourced to Hokkaido System Science) or compound 1 (0, 0.03, 0.1, 0.3, 1,3, 10, 30, 100, 300, and 1000 μM, Formula 1, Matrix Scientific) were added to each well. The ligands used were mouse Ephrin A1-Fc chimera (R&D Systems, final concentration: 20 nM) and mouse Ephrin B2-Fc chimera (R&D Systems, final concentration: 0.6 nM). […] The absorbance at 450 nm was read using a microplate reader (Molecular Devices).

[2] = tested on: mouse, rat, monkey, and human EphA4; assay: Reactivity ELISA with mouse, rat, monkey, and human EphA4; type: binding; details: 0.00128-20 μg/mL
Procedure: Mouse, rat, monkey, and human EphA4 extracellular region-Fc-His proteins were prepared according to the following steps. First, according to the method described in Example 1, a monkey EphA4 extracellular region-Fc-His protein expression vector was constructed. The amino acid sequence of monkey EphA4 used in the vector construction is shown in SEQ ID NO: 44, and its extracellular region is shown in SEQ ID NO: 45. Next, HEK293EBNA cells (Life Technologies) were inoculated to a 10-cm dish (Falcon) and cultured at 37° C. for 1 day. The HEK293EBNA cells were transfected with the monkey EphA4 extracellular region-Fc-His protein expression vector or the mouse EphA4, rat EphA4, or human EphA4 extracellular region-Fc-His protein expression vector described in Example 1 using TransIT-LT1 (TAKARA). After incubation (5% CO2, 37° C.) for 4 days, the culture supernatant was recovered and centrifuged at 1500 rpm at room temperature for 5 minutes. […]
Antibody A was evaluated for its binding activity against various Eph receptors according to the following steps.
Each well of a 96-well plate (Nunc) was coated with a donkey anti-mouse IgG antibody (Jackson ImmunoResearch Laboratories). […] The absorbance at 450 nm was read using a microplate reader (PerkinElmer).

T1 sequence (Q03137 with tags, fused parts or gaps): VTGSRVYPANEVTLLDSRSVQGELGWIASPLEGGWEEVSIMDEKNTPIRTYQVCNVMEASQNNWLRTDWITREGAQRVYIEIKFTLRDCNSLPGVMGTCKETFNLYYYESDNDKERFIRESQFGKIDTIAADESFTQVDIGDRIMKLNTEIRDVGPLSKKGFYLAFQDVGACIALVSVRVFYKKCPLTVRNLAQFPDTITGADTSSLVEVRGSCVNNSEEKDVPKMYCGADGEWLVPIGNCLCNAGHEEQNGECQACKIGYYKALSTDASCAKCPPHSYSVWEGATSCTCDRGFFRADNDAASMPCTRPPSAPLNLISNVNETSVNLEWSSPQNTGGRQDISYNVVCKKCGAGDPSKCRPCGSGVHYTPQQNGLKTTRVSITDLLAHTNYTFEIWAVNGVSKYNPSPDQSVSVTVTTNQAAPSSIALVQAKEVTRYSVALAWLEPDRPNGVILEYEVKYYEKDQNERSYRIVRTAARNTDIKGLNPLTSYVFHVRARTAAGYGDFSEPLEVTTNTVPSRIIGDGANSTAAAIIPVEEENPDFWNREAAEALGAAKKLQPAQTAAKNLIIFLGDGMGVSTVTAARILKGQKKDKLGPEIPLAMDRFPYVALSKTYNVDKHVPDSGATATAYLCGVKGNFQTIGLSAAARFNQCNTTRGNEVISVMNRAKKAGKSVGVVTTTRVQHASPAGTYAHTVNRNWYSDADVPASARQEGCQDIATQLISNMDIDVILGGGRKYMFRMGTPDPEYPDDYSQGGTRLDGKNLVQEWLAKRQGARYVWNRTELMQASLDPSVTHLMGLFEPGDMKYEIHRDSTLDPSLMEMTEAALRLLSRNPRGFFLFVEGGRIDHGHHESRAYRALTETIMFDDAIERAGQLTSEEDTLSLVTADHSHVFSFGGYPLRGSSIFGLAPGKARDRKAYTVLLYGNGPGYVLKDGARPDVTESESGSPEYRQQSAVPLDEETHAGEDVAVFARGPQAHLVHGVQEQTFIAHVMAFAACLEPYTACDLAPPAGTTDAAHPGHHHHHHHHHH

B1: antibody A: mouse anti-EphA4 monoclonal antibody, IgG1/κ; heavy chain variable region SEQ ID NO: 11, light chain variable region SEQ ID NO: 13 (antibody, listed as Mus musculus, V domains shown)
VH: QIQLVQSGPELKKPGETVKISCKASGYTFTDYSMHWVKQAPGKGLKWMGWINTETGEPTYADDFKGRFAFSLETSASTAYLQINNLKNEDTATYFCARIPLYYYGSRYWYFDVWGAGTTVTVSS
VL: DIQMTQSPASLSVSVGETVTITCRASENIYRNLAWYQQKQGKSPQLLVYAATNLADGVPSRFSGSGSGTQYSLKINSLQSEDFGSYYCQHFWGTPWTFGGGTKLEIK
For B1, the “activity relative to KYL peptide (times stronger)” value [1] was ≥ 1,000 times and the “reaction activity against mouse, rat, monkey, and human EphA4 (in words)” value [2] was “equivalent reaction activity against all of mouse, rat, monkey, and human EphA4”.
